Experimental data published in US20240067947.

B1: Truncated wild-type ADAMTS13 (protein)
chain: AAGGILHLELLVAVGPDVFQAHQEDTERYVLTNLNIGAELLRDPSLGAQFRVHLVKMVILTEPEGAPNITANLTSSLLSVCGWSQTINPEDDTDPGHADLVLYITRFDLELPDGNRQVRGVTQLGGACSPTWSCLITEDTGFDLGVTIAHEIGHSFGLEHDGAPGSGCGPSGHVMASDGAAPRAGLAWSPCSRRQLLSLLSAGRARCVWDPPRPQPGSAGHPPDAQPGLYYSANEQCRVAFGPKAVACTFAREHLDMCQALSCHTDPLDQSSCSRLLVPLLDGTECGVEKWCSKGRCRSLVELTPIAAVHGRWSSWGPRSPCSRSCGGGVVTRRRQCNNPRPAFGGRACVGADLQAEMCNTQACEKTQLEFMSQQCARTDGQPLRSSPGGASFYHWGAAVPHSQGDALCRHMCRAIGESFIMKRGDSFLDGTRCMPSGPREDGTLSLCVSGSCRTFGCDGRMDSQQVWDRCQVCGGDNSTCSPRKGSFTAGRAREYVTFLTVTPNLTSVYIANHRPLFTHLAVRIGGRYVVAGKMSISPNTTYPSLLEDGRVEYRVALTEDRLPRLEEIRIWGPLQEDADIQVYRRYGEEYGNLTRPDITFTYFQPKPRQA
B2: mrADAMTS13 (truncated modified human recombinant ADAMTS13) (protein)
chain: AAGGILHLELLVAVGPDVFQAHQEDTERYVLTNLNIGAELLRDPSLGAQFRVHLVKMVILTEPEGAPNITANLTSSLLSVCGWSQTINPEDDTDPGHADLVLYITRFDLELPDGNRQVRGVTQLGGACSPTWSCLITEDTGFDLGVTIAHEIGHSFGLEHDGAPGSGCGPSGHVMASDGAAPRAGLAWSPCSRRQLLSLLSAGRARCVWDPPRPQPGSAGHPPDAQPGLYYSANEQCRVAFGPKAVACTFAREHLDMCQALSCHTDPLDQSSCSRLLVPLLDGTECGVEKWCSKGRCRSLVELTPIAAVHGRWSSWGPRSPCSRSCGGGVVTRRRQCNNPRPAFGGRACVGADLQAEMCNTQACEKTQLEFMSQQCARTDGQPLRSSPGGASFYHWGAAVPHSQGDALCRHMCRAIGESFIMKRGDSFLDGTRCMPSGPREDGTLSLCVSGSCRTFGCDGRMDSQQVWDRCQVCGGDNSTCSPRKGSFTAGRAREYVTFLTVTPNLTSVYIANHRPLFTHLAVRIGGRYVVAGKMSISPNTTYPSLLEDGRVEYRVALTEDRLPRLEEIRIWGPLQEDADIQVYRRYGEEYGNLTRPDITFTYFQPKPRQAKGELGTELGSEGKPIPNPLLGLDSTRTGHHHHHH

Target: T1, VWF-73 FRETS substrate, P04275
T1 chain: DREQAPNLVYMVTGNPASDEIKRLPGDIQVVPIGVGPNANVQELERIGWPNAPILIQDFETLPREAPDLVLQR

| Protein | ADAMTS13 activity (VWF-73 FRETS assay) | ADAMTS13 specific activity of mrADAMTS13 released from PLGA microparticles (FRETS VWF-73 fluorescent emission) |
| --- | --- | --- |
| B1 | demonstrated enhanced activity of mrADAMTS13 compared to truncated wild type ADAMTS13 | – |
| B2 | demonstrated enhanced activity of mrADAMTS13 compared to truncated wild type ADAMTS13 | This data demonstrates active ADAMTS13 enzyme is present in all samples including at 120 hours |
